Key:
[1] = target: HLA-B*15:02; test: IEDB peptide-MHC binding, purified MHC/competitive/fluorescence; filed as Kd, often an IC50 or EC50 that approximates it; ≥ and ≤ were set here for values at or beyond the usual limits of such assays; conditions: source organism: Vibrio vulnificus CMCP6
[2] = target: HLA-A*01:01; test: IEDB peptide-MHC binding, purified MHC/direct/fluorescence; filed as Kd, often an IC50 or EC50 that approximates it; ≥ and ≤ were set here for values at or beyond the usual limits of such assays; conditions: source organism: Sudan ebolavirus
[3] = target: HLA-A*29:02; test: as above; conditions: source organism: Sudan ebolavirus
[4] = target: HLA-A*68:23; test: IEDB peptide-MHC binding, purified MHC/competitive/fluorescence; filed as Kd, often an IC50 or EC50 that approximates it; ≥ and ≤ were set here for values at or beyond the usual limits of such assays; conditions: source organism: Sudan ebolavirus
[5] = target: HLA-B*15:42; test: as above
[6] = target: HLA-B*45:06; test: as above
[7] = target: HLA-B*83:01; test: as above
[8] = target: HLA-B*73:01; test: as above
[9] = target: HLA-A*02:01; test: IEDB peptide-MHC binding, purified MHC/competitive/fluorescence; ≥ and ≤ were set here for values at or beyond the usual limits of such assays; conditions: source organism: Taeniopygia guttata
[10] = target: HLA-B*51:01; test: as above; conditions: source organism: Taeniopygia guttata
[11] = target: HLA-B*40:01; test: IEDB peptide-MHC binding, purified MHC/direct/fluorescence; filed as Kd, often an IC50 or EC50 that approximates it; ≥ and ≤ were set here for values at or beyond the usual limits of such assays; conditions: source organism: Mycobacterium tuberculosis
[12] = target: HLA-B*27:20; test: IEDB peptide-MHC binding, purified MHC/competitive/fluorescence; filed as Kd, often an IC50 or EC50 that approximates it; ≥ and ≤ were set here for values at or beyond the usual limits of such assays
[13] = target: HLA-A*02:01; test: IEDB peptide-MHC binding, purified MHC/direct/fluorescence; filed as Kd, often an IC50 or EC50 that approximates it; ≥ and ≤ were set here for values at or beyond the usual limits of such assays
[14] = target: HLA-A*69:01; test: as above
[15] = target: HLA-A*02:50; test: IEDB peptide-MHC binding, purified MHC/competitive/fluorescence; filed as Kd, often an IC50 or EC50 that approximates it; ≥ and ≤ were set here for values at or beyond the usual limits of such assays
[16] = target: HLA-C*06:02; test: IEDB peptide-MHC binding, purified MHC/direct/fluorescence; filed as Kd, often an IC50 or EC50 that approximates it; ≥ and ≤ were set here for values at or beyond the usual limits of such assays; conditions: source organism: human gammaherpesvirus 4
[17] = target: HLA-A*02:19; test: as above; conditions: source organism: Coxiella burnetii Q321
[18] = source organism: Sudan ebolavirus
[19] = source organism: Listeria monocytogenes HPB2262
[20] = source organism: Mycobacterium tuberculosis H37Ra
[21] = source organism: Mycobacterium tuberculosis
[22] = source organism: human gammaherpesvirus 4
[23] = source organism: Coxiella burnetii

AMRVGSSIM
Kd [1]: 118 nM

CTSSIQYHR
Kd [2]: ≥ 20000 nM | Kd [3]: 1440 nM | Kd [4]: 3.8 nM | Kd [5, 18]: ≥ 5000 nM | Kd [6, 18]: ≥ 5000 nM | Kd [7, 18]: ≥ 5000 nM

FETMVFPAV
Kd [5, 19]: ≥ 5000 nM | Kd [6, 19]: ≥ 5000 nM | Kd [8, 19]: ≥ 5000 nM | Kd [7, 19]: ≥ 5000 nM

FLLPILSQI
IC50 [9]: 52.6 nM | IC50 [10]: ≥ 20000 nM

KRPYVFVAA
Kd ([8]; source organism: Yersinia enterocolitica subsp. enterocolitica 8081): 68.5 nM

LEMQHLISL
Kd [11]: 13.7 nM | Kd [5, 20]: ≥ 5000 nM | Kd [12, 20]: 1110 nM | Kd [6, 20]: ≥ 5000 nM

LLYEVDGDV
Kd [13, 21]: ≥ 20000 nM | Kd [14, 21]: ≥ 20000 nM | Kd ([15]; source organism: Mycobacterium tuberculosis variant bovis BCG str. Pasteur 1173P2): 1130 nM

RRYASQTEL
Kd [16]: 21 nM | Kd [5, 22]: ≥ 5000 nM | Kd [12, 22]: 0.2 nM | Kd [6, 22]: ≥ 5000 nM | Kd [7, 22]: ≥ 5000 nM

YQLGDYFFV
Kd [13, 23]: 1.5 nM | Kd [17]: 2 nM | Kd [14, 23]: 1.3 nM | Kd ([15]; source organism: Coxiella burnetii Dugway 5J108-111): ≤ 0.1 nM

Reference: the Immune Epitope Database (IEDB)
